Source: PMC2911661

Molecular target: SH2 domain of SHC1 (human) (UniProt P29353)
Experiment: peptide or protein array

Chain of UniProt P29353 (P29353 488-579): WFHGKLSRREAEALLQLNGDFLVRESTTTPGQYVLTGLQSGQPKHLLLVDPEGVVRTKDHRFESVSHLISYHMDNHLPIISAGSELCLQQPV

Kd: < 0.2 µM
Substance: singly phosphorylated Tarp D peptide (18 amino acids around the ENIYE motif)
